No end group written: not given here.

B2: mouse TAPL truncation mutant devoid of the N-terminal 142 residues (ΔTMD0) (domain or fragment, UniProt Q9JJ59 143-762, looked up)
chain: DAEALEPGNEGFHGEGGAPAEQASGATLQKLLSYTKPDVAFLVAASFFLIVAALGETFLPYYTGRAIDSIVIQKSMDQFTTAVVVVCLLAIGSSLAAGIRGGIFTLVFARLNIRLRNCLFRSLVSQETSFFDENRTGDLISRLTSDTTMVSDLVSQNINIFLRNTVKVTGVVVFMFSLSWQLSLVTFMGFPIIMMVSNIYGKYYKRLSKEVQSALARASTTAEETISAMKTVRSFANEEEEAEVFLRKLQQVYKLNRKEAAAYMSYVWGSGLTLLVVQVSILYYGGHLVISGQMSSGNLIAFIIYEFVLGDCMESVGSVYSGLMQGVGAAEKVFEFIDRQPTMVHDGSLAPDHLEGRVDFENVTFTYRTRPHTQVLQNVSFSLSPGKVTALVGPSGSGKSSCVNILENFYPLQGGRVLLDGKPIGAYDHKYLHRVISLVSQEPVLFARSITDNISYGLPTVPFEMVVEAAQKANAHGFIMELQDGYSTETGEKGAQLSGGQKQRVAMARALVRNPPVLILDEATSALDAESEYLIQQAIHGNLQRHTVLIIAHRLSTVERAHLIVVLDKGRVVQQGTHQQLLAQGGLYAKLVQRQMLGLEHPLDYTASHKEPPSNTEHKA
notes: mouse TAPL (ABCB9), protein of 762 amino acids, lacking the N-terminal 142 residues (TMD0); Homodimer by the cryo-EM structures; A thrombin site stood between TAPL and eGFP-10XHis; residues of the site may be left at the C-terminus after cleavage; also called ABCB9; TAP-like; source: High Five (Hi5) insect cells, baculovirus; purified (anti-GFP DARPin agarose, on-column thrombin cleavage, gel …)

In data set [1] the target is B2. The data set is described as follows: cryo-EM structure; DM/CHS-purified ΔTMD0 with 1 mM 9-mer peptide, on ice for 30 min; inward-facing, 4.0 Å. The conditions noted are these: both partners purified.
Data set [2] concerns the molecule itself. The experiment in a line: cryo-EM structure; ΔTMD0 in nanodiscs of E. coli polar lipids, no peptides or nucleotides; inward-facing, 3.4 Å.
Data set [3] has as its target B2. The data set is described as follows: MST; 0.2 μM Cy5-labeled peptide with serial 2-fold dilutions of DM-purified protein, 10 min at RT; Monolith NT.115 pico. Particulars: both partners purified.
In data set [4] the target is T1, mouse TAPL ΔTMD0 Y405A mutant (mouse, UniProt Q9JJ59 143-762, Y405A).
T1 construct: mouse TAPL (ABCB9) lacking the N-terminal 142 residues (TMD0), with Y405A; source: High Five (Hi5) insect cells, baculovirus; DM-purified; not shown: eGFP, C-terminal, cleaved; His10, C-terminal, cleaved
T1 sequence (looked up): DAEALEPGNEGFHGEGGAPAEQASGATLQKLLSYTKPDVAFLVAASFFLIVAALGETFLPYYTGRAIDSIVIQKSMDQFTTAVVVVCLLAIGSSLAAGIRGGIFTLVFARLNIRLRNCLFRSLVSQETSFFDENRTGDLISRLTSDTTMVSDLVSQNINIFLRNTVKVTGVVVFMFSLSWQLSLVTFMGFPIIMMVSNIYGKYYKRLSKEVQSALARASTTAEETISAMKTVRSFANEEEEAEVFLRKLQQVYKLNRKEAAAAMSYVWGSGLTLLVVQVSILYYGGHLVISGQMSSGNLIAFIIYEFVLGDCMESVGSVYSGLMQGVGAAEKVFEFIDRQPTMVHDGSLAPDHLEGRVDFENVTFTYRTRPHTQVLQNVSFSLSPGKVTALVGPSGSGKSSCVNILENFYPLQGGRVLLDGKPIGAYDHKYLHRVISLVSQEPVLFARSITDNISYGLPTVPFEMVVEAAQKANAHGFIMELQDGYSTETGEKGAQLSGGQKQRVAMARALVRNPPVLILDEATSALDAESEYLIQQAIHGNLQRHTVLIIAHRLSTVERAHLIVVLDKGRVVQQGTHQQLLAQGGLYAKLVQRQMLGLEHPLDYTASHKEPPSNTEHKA
Described as above. Particulars: both partners purified.

B1: 9-mer peptide RRYQKSTEL (peptide)
peptide: RRYQKSTEL
notes: short synthetic peptide known to be transported by human TAPL; source: synthetic peptide (ANYGEN Co., Ltd.)
Turning to B1, the binding result in data set [1] was “binds”.

For B2, the “stoichiometry N” value in data set [2] came to 2.

B3: Cy5-labeled 9-mer peptide RRYQNSTC(Cy-5)L (peptide)
peptide: RRYQNSTC(Cy5)L
notes: synthetic 9-mer peptide with a single cysteine for labeling; also called Cy5-labeled peptide; source: synthetic peptide (ANYGEN Co., Ltd.), labeled with Cy5, desalted
In the case of B3, the Kd in data set [3] was found to be 51.9 nM; in data set [4] it was 3800 nM.

These data come from article PMC9532399, “The lysosomal transporter TAPL has a dual role as peptide translocator and phosphatidylserine floppase” (Nature Communications, 2022).
